Data on 3 molecules can be found in patent US20240392262A1, “TRANSPOSASE AND USES THEREOF” (Poseida Therapeutics, Inc., published 2024).

Where a chain is given by its changes, count along the chain named.

One data set concerns the target T1, GFP1 Right NT-G TAL-PBx (synthetic construct).
T1 chain: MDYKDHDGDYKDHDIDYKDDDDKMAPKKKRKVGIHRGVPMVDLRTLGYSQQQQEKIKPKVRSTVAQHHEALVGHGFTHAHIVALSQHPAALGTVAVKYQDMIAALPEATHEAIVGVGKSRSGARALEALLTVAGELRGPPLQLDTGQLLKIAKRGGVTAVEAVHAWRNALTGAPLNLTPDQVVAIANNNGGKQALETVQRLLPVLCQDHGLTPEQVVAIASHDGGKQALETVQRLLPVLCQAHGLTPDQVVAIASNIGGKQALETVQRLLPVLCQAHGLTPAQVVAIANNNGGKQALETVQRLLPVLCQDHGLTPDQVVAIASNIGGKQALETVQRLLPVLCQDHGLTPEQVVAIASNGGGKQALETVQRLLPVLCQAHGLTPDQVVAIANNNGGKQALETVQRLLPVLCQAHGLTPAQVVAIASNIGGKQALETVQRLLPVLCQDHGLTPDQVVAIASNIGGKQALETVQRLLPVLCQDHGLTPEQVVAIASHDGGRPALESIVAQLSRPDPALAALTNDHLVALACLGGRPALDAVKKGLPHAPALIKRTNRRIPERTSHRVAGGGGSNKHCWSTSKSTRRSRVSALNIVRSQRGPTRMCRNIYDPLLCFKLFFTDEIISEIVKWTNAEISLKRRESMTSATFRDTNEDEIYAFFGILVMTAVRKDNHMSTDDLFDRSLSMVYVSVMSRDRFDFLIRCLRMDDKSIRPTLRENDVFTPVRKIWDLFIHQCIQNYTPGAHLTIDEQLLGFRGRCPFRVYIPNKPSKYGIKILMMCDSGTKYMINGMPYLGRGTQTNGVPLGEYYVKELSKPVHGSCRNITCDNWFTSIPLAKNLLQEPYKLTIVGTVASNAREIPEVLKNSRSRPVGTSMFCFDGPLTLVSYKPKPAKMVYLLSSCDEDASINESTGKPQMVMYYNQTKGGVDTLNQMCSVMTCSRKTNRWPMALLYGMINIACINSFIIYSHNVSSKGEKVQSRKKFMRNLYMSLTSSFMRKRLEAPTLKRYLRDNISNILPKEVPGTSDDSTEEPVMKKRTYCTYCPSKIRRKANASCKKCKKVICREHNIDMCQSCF
In words: cell_activity. To be noted: tags: 3xFlag, SV40 NLS; chain copies: 2.

Data set [1] addresses T2, GFP1 Right NT-betaN TAL-PBx (synthetic construct).
T2 chain: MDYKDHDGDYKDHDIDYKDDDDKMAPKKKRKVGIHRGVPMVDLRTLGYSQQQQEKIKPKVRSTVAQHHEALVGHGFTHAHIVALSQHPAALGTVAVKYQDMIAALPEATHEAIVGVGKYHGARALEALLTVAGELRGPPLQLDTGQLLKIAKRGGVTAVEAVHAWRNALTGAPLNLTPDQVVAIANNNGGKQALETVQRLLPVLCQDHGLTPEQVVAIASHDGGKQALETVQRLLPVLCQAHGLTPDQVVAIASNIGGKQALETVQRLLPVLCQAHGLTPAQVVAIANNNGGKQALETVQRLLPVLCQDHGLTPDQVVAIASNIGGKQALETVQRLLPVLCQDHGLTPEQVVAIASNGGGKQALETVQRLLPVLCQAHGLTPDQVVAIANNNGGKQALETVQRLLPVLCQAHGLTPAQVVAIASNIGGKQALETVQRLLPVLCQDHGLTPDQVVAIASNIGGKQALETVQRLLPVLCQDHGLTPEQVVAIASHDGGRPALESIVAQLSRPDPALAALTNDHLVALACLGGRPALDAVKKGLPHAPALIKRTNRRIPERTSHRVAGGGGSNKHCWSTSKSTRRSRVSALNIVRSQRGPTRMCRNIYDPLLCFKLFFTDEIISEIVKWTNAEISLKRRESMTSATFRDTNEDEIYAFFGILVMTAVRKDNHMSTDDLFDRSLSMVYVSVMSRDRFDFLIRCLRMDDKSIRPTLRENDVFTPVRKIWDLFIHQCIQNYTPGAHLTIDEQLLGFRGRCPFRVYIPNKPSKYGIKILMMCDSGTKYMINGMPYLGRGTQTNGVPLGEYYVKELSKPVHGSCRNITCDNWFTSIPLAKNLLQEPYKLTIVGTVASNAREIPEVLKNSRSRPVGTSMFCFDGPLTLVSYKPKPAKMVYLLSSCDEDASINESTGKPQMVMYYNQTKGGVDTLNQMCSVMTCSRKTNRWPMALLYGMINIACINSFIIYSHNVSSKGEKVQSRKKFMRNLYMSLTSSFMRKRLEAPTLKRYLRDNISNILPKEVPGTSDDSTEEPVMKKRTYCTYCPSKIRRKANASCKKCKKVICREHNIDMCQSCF
The data set can be described thus: cell_activity. Particulars: tags: 3xFlag, SV40 NLS; chain copies: 2.

For a further data set, the target named is T3, GFP1 Right TALEN NT-G (synthetic construct).
T3 chain: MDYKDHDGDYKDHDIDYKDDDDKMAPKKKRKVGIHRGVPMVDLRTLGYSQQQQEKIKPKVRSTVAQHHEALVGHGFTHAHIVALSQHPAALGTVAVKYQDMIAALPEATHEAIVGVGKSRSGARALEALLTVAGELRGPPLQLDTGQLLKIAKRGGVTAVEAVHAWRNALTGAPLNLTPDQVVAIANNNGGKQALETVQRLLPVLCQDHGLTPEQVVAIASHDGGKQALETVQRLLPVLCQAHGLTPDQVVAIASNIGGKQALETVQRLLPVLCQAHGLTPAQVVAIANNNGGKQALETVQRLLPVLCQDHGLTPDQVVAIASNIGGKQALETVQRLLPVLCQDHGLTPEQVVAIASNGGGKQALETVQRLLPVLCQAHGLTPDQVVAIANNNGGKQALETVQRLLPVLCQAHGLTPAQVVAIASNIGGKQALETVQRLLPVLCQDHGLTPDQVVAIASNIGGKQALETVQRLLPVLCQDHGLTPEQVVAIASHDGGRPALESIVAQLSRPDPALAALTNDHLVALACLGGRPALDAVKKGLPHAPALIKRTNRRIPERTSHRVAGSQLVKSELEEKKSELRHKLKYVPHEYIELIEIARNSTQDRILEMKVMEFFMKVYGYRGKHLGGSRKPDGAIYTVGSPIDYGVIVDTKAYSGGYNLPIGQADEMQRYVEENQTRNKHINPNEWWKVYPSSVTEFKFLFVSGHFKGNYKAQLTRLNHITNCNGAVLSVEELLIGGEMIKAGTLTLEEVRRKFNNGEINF
The data set can be described thus: cell_activity; SSA. To be noted: tags: 3xFlag, SV40 NLS, FokI fusion; chain copies: 2. The method, then:
(§1) The TALEN NT-G and NT-ON designs were tested using the single strand annealing reporter (Example 17). The target site corresponding to the GFP1 Right TALEN (SEQ ID NO: 288) was modified to replace T 5′ of the target sites with either an A, a C, or a G to create SEQ ID NOs: 403-405). A transfection mixture containing 90 ng of each TALEN, 10 ng of the corresponding reporter and 1.5p of Transit-2020 transfection reagent in a total volume of 20 μl of Serum Free OptiMem medium were assembled. A TALEN or a reporter were transfected alone as negative controls. An aliquot of 30,000 HEK293T cells in 180 μl of DMEM medium supplemented with 10% FBS was added and the transfection mixture was plated in 96 well plates and incubated for one day at 37° C. at 5% CO2. The following day, a lysis buffer was added to the cells and the lysate was transferred to a white 96 well plate. A buffer containing substrate for Firefly luciferase was mixed with the cells and luciferase luminescence was detected using a plate reader.

Another data set has as its target T4, GFP1 Right TALEN (synthetic construct).
T4 chain: T3 chain with S119Q, R120W
The data set can be described thus: cell_activity; SSA. To be noted: tags: 3xFlag, SV40 NLS, FokI fusion; chain copies: 2. The method, then:
as §1

In data set [2] the target is T5, GFP1 Right TALEN NT-betaN (synthetic construct).
T5 chain: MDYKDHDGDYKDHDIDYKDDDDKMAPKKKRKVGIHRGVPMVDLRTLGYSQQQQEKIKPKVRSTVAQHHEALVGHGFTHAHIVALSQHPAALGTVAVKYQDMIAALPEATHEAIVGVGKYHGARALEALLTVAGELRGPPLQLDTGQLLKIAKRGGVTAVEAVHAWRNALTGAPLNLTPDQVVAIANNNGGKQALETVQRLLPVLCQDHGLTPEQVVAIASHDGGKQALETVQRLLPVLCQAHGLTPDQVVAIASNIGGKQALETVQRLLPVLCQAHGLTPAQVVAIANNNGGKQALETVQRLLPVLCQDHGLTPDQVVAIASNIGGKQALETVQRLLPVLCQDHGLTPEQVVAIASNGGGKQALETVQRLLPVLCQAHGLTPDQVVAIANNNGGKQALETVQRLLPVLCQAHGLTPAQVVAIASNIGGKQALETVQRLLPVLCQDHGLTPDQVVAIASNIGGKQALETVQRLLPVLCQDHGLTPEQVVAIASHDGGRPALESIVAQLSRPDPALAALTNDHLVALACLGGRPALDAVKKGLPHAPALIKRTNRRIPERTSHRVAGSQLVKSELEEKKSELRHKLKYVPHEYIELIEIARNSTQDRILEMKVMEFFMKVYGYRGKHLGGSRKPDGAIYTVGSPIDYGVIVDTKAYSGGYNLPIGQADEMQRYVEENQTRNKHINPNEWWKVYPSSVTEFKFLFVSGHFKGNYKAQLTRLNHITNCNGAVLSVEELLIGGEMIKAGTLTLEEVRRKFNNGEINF
In words: cell_activity; SSA. Particulars: tags: 3xFlag, SV40 NLS, FokI fusion; chain copies: 2. The method, then: as §1

B1: GFP1R 13 bp 5'G (dsDNA)
DNA 1: GGCAGATGAACGCAATCTCACGGCTTAACTACTGACCTGAAGTTCATCTGCC
DNA 2: GGCAGATGAACTTCAGGTCAGTAGTTAAGCCGTGAGATTGCGTTCATCTGCC
Turning to B1, the activity (with GFP1 Right NT-G TAL-PBx; in data set [1]) was 20.4 % GFP+ in each case.

B2: GFP1 R SSA site 5'C (dsDNA)
DNA 1: GGCGCAGATGAACGCAAGCTGACCCTGAAGTTCATCTGCGTT
DNA 2: AACGCAGATGAACTTCAGGGTCAGCTTGCGTTCATCTGCGCC
Consider B2, for which the activity is 693000 RLU with GFP1 Right TALEN NT-G, 419000 RLU with GFP1 Right TALEN and 1.12e+06 RLU in data set [2].

B3: GFP1 R SSA site 5'G (dsDNA)
DNA 1: B2 DNA 1 with C3G, G40C
DNA 2: B2 DNA 2 with C3G, G40C
Regarding B3, the activity in the data set with GFP1 Right TALEN NT-G came out at 1.07e+06 RLU; with GFP1 Right TALEN it was 294000 RLU; in data set [2], 1.21e+06 RLU.
